Assay results as given in patent US20250136677A1 (ZOETIS SERVICES, published 2025).
Substitutions are numbered along the chain they refer to. Read-outs that look alike come from different tables or passages of the source.

T1: wildtype feline IL-31 protein (Feline_IL31_wildtype) (feline)
T1 chain: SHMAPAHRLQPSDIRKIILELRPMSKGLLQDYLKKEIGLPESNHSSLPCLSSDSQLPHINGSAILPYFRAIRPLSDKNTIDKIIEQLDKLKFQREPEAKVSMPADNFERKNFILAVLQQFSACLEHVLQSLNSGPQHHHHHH

T2: canine IL-31 protein (Canine_IL31) (canine)
T2 chain: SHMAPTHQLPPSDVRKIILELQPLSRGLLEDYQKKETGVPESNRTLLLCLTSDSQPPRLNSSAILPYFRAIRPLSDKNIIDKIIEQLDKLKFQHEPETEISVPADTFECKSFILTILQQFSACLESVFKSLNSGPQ

T3: equine IL-31 protein (Equine_IL31) (equine)
T3 construct: Recombinant equine IL-31
T3 chain: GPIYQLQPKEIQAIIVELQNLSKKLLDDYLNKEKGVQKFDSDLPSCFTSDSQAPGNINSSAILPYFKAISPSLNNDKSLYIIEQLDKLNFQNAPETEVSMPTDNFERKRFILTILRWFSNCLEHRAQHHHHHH

T4: mutant feline IL-31 11E12 protein (Feline_IL31_11E12_mutant) (feline)
T4 construct: also called feline 11E12 mutant; 11E12 IL-31 mutant
T4 chain: T1 chain with D81A, I84A

T5: mutant feline IL-31 15H05 protein (Feline_IL31_15H05_mutant) (feline)
T5 construct: also called feline 15H05 mutant; 15H05 IL-31 mutant
T5 chain: T1 chain with P103A, D105A

T6: human IL-31 (human, UniProt Q6EBC2 24-164)
T6 sequence: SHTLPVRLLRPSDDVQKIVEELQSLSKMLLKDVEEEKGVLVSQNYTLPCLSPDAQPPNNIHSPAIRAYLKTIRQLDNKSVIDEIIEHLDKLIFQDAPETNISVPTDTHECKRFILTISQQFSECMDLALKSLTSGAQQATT

B1: ZTS-361 (antibody)
heavy: QVLLVQSGAEVRTPGASVKIFCKASGYSFTSYTIHWLRQAPAQGLEWMGNINPTSGYTENNQRFKDRLTLTADTSTNTAYMELSSLRSADTAMYYCARWGFKYDGEWSFDVWGAGTTVTVSSASTTAPSVFPLAPSCGTTSGATVALACLVLGYFPEPVTVSWNSGALTSGVHTFPAVLQASGLYSLSSMVTVPSSRWLSDTFTCNVAHPPSNTKVDKTVRKTDHPPGPKPCDCPKCPPPEAAGAPSIFIFPPKPKDTLSISRTPEVTCLVVDLGPDDSDVQITWFVDNTQVYTAKTSPREEQFNSTYRVVSVLPILHQDWLKGKEFKCKVNSKSLPSPIERTISKAKGQPHEPQVYVLPPAQEELSRNKVSVTCLIKSFHPPDIAVEWEITGQPEPENNYRTTPPQLDSDGTYFVYSKLSVDRSHWQRGNTYTCSVSHEALHSHHTQKSLTQSPGK
light: EIQMTQSPSSLSASPGDRVTITCRASQGISIWLSWYQQKPGNIPKVLINKASNLHIGVPSRFSGSGSGTDFTLTISSLEPEDAATYYCLQSQTYPLTFGGGTKLEIKRSDAQPSVFLFQPSLDELHTGSASIVCILNDFYPKEVNVKWKVDGVVQNKGIQESTTEQNSKDSTYSLSSTLTMSSTEYQSHEKFSCEVTHKSLASTLVKSFQRSECQRE
B2: ZTS-1505 (antibody)
heavy: B1 heavy
light: EIQMTQSPSSLSASPGDRVTITCRASQGISIWLSWYQQKPGNIPKVLINKASNLHIGVPSRFSGSGSGTDFTLTISSLEPEDAATYYCLQSQTYPLTFGGGTKLEIKRSDAQPSVFLFQPSLDELHTGSASIVCILNDFYPKEVNVKWKVDGVVQNKGIQESTTEQNSKDSTYSLSSTLTMSSTEYQSHEKFSCEVTHKSLASTLVKSFQRSEC
B3: ZIL154 (recombinant fully canine antibody) (antibody, V domains shown)
VH: EVHLVESGGDLVKPWGSLRLSCVASGFTFSDRGMSWVRQSPGKGLQWVAYIRYDGSRTDYADAVEGRFTISRDNAKNTLYLQMNSLRAEDTAVYYCARWDGSSFDYWGQGTLVTVSS
VL: DIVVTQTPLSLSVSPGETASFSCKASQSLLHSDGNTYLDWFRQKPGQSPQRLIYKVSNRDPGVPDRFSGSGSGTDFTLRISGVEADDAGLYYCMQAIHFPLTFGAGTKVELKR
notes: Fully canine IgG; also called CAN-ZIL154
B4: mouse anti equine IL-31 antibody 04H07 (antibody, V domains shown)
VH: QVQLQQPGAELVRPGASVKLSCKASGYTFTSYWMNWAKQRPGQGLEWIGMIDPSDSEIHYNQVFKDKATLTVDKSSSTAYMQLSSLTSEDSAVYYCARQDIVTTVDYWGQGTTLTVSS
VL: DIVMSQSPSSLAVSVGEKVTMSCKSSQSLLYSINQKNHLAWFQQKPGQSPKLLIYWASTRESGVPARFTGSGSGTDFTLTISSVKTEDLAVYYCQQGYTYPFTFGSGTKLEIK
notes: Mouse hybridoma antibody; also called Mu_04H07
B5: mouse anti equine IL-31 antibody 06A09 (antibody, V domains shown)
VH: B4 VH with S25Y, A37V, I58T, V63I, K65R, V72I, Y95F
VL: B4 VL with H38F, F42Y, A66D, T86S, G97H, T99G
notes: Mouse hybridoma antibody; also called Mu_06A09

Tests used:
[1] = target: T1, wildtype feline IL-31 protein …; experiment: cell-based or functional assay
[2] = target: T1, wildtype feline IL-31 protein …; experiment: SPR (Biacore), IL-31 on chip, 1:1 fit
Method in brief: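 IL-31 was amine-coupled (NHS/EDC) to the chip at 5 μg/mL and quenched with ethanolamine, and candidate mAbs were flowed over it as analytes. Binding curves were fitted to a 1:1 model.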

[3] = target: T2, canine IL-31 protein (Canine_IL31)
[4] = target: T3, equine IL-31 protein (Equine_IL31); experiment: SPR (Biacore), IL-31 protein as surface capture
Experimental: (§1) The affinity with which candidate mAbs bind canine and feline IL-31 was determined using surface plasmon resonance (SPR) on a Biacore system (Biocore Life Sciences (GE Healthcare), Uppsala, Sweden). To avoid affinity differences associated with differential surface preparation that can occur when immobilizing antibodies to surfaces; a strategy was employed where IL-31 was directly conjugated to the surface. Immobilization was obtained by amine coupling 5 μg/mL IL-31 using N-hydroxysuccinimide (NHS)/1-Ethyl-3-(3-dimethylaminopropyl) carbodiimide (EDC) chemistry. Chips were quenched with ethanolamine and the affinity with which all candidate mAbs bound to the immobilized IL-31 was evaluated. All curves were fit to a 1:1 model. […] Results for affinity measurements are described herein.
(§2) Table 1 below describes the results for biacore analysis using multiple species of IL-31 protein as a surface capture.

[5] = target: T1, wildtype feline IL-31 protein …; experiment: SPR (Biacore), IL-31 protein as surface capture
Experimental: as §1, §2

[6] = target: T4, mutant feline IL-31 11E12 protein …; experiment: SPR (Biacore), IL-31 protein as surface capture
Experimental: as §1, §2

[7] = target: T5, mutant feline IL-31 15H05 protein …; experiment: Biacore, IL-31 protein as surface capture
Experimental: as §1, §2

[8] = target: T2, canine IL-31 protein (Canine_IL31); experiment: SPR (Biacore), IL-31 protein as surface capture
[9] = target: T2, canine IL-31 protein (Canine_IL31); experiment: cell-based or functional assay
[10] = target: T1, wildtype feline IL-31 protein …; experiment: Biacore, feline IL-31 chip, mAb 100 nM, share of points within parent mean +/-3 SD; design: key: % of mutant data points within parent mAb mean ±3 SD
From the text: (§3) The mean response unit of four replicates of the parent mAb+/−3 standard deviations was used to generate parameters to define a threshold of response units comprising both the on- and off-rates antibody binding (FIG. 22). The percentage of data points for each mutant fell within this threshold was then used to define a “% similarity score” (FIG. 23).

[11] = target: T1, wildtype feline IL-31 protein …; experiment: as above; design: key: % of mutant data points within parent mAb mean ±3 SD
From the text: The region of an antibody responsible for antigen recognition represents the paratope. A paratope is created by a combination of amino acids in the complementarity determining regions (CDRs) of both the heavy and light chain variable regions. The binding between antibody and antigen is often mediated by side chains of CDR residues with side chains or carbohydrate moieties of the antigen. To help define critical side chains involved in antibody recognition alanine scanning mutagenesis was performed on each CDR residue in both the heavy and light chain. These mutants were then individually tested for the ability to bind feline IL-31 using the biacore and evaluated for inhibition of IL-31-mediated signaling in the FCWF-4 cell based assay.
as §3

[12] = target: T1, wildtype feline IL-31 protein …; experiment: cell-based or functional assay
[13] = target: T1, wildtype feline IL-31 protein …; experiment: cell-based or functional assay
[14] = target: T1, wildtype feline IL-31 protein …; experiment: indirect ELISA, IL-31 protein coated
Experimental: (§4) For the indirect ELISA method, antibody binding to wildtype and feline IL-31 15H05 mutant proteins was assessed. All nine canine monoclonal antibodies (ZIL1, ZIL8, ZIL8, ZIL11, ZIL69, ZIL94, ZIL154, ZIL159, and ZIL171) were capable of binding to wildtype feline IL-31 and binding was impacted by mutations in the mAb 15H05 epitope region confirming the correct binding phenotype determined during the initial screening used to identify them. In comparison, the 11E12 antibody bound to the wild-type feline IL-31 and its binding was not impacted by the mutations in the 15H05 epitope region as evidenced by the data in FIG. 4. To confirm binding, biacore analysis was performed using canine, feline, equine, human, feline 15H05 mutant, and feline 11E12 mutant IL-31 proteins as surfaces and a single test concentration of antibody. Similar to ELISA observations, all antibodies tested bound to wildtype feline IL-31. In agreement with the data described above in this section, mouse antibodies 11E12 and 15H05 both bound to canine and feline IL-31 surfaces. Three additional antibodies where shown to have this dual binding property, ZIL69 (partial canine binding), ZIL94, and ZIL159. From this group of nine fully canine antibodies, only ZIL1 and ZIL9 cross-reacted with equine IL-31. Of note, antibody 15H05 was the only one of all assayed herein that bound to canine, feline, and equine IL-31 indicating some level of epitope conservation across the three species. In contrast, none of the antibodies described herein bound to human IL-31. Additional biacore surfaces were used to verify ELISA observations showing differential binding of antibodies to wildtype feline IL-31 and two proteins with mutations in the 15H05 (15H05 mutant) or 11E12 (11E12 mutant) epitopes. […] In agreement with the ELISA results, all fully canine antibodies were impacted by the 15H05 mutation with the exception of ZIL94, ZIL154, and ZIL171 (partially affected). Differing results can be attributed to differences in the two assay methodologies.

[15] = target: T5, mutant feline IL-31 15H05 protein …; experiment: indirect ELISA, IL-31 protein coated
Experimental: as §4

human IL-31 = target: T6, human IL-31; experiment: SPR (Biacore), IL-31 surface, single antibody concentration
[16] = target: T3, equine IL-31 protein (Equine_IL31); experiment: as above
[17] = target: T4, mutant feline IL-31 11E12 protein …; experiment: as above
[18] = target: T3, equine IL-31 protein (Equine_IL31); experiment: ELISA screening of hybridoma supernatants on equine IL-31

Binder | Inhibition of IL-31 induced pSTAT3 IC50 (µg/ml), Feline IL-31 on Feline FCWF-4 cells [1] | Kd [4] | Kd [5] | Kd [6] | binding result [7] | Kd [8] | Inhibition of IL-31 induced pSTAT3 IC50 (µg/ml), Canine IL-31 on Canine DH82 cells [9] | binding result [18] | further results
B1 | 8.85 µg/ml | 0.625 nM | 0.625 nM | 17.2 nM | no binding | 0.00241 nM | 23 µg/ml |  | Kd [2]: 0.474 nM; koff [2]: 2.18e-05 s⁻¹; kon [2]: 46000 M⁻¹ s⁻¹; IC50, inhibition of canine IL-31-induced STAT3 phosphorylation, feline FCWF4 cells [3]: 38.8 µg/mL
B2 | 4.53 µg/ml | 0.575 nM | 0.575 nM | 19.5 nM | no binding | 0.00183 nM | 21.8 µg/ml |  | Binding Similarity score [10]: 97; Binding Similarity score [11]: 97; % Inhibition Relative to Parent (pSTAT, FCWF-4 cells) [12]: 100%; % Inhibition Relative to Parent (pSTAT, FCWF-4 cells) [13]: 100%
B3 |  |  |  |  |  |  |  |  | ELISA OD [14]: 1.62 OD; ELISA OD [15]: 1.38 OD; binding result (human IL-31): no binding; binding result [16]: no binding; binding result [17]: binds
B4 |  |  |  |  |  |  |  | binds | 
B5 |  |  |  |  |  |  |  | binds | 
